We go through two substances from publication PMC10179162.

Assay [1] concerns the target chimeric HPV16 L1:P18I10 capsid protein (293F-derived, chromatography-purified L1:P18I10 VLP) (human papillomavirus type 16 | HIV-1) (UniProt P03101). Kind of assay: non-reducing SDS-PAGE (disulfide cross-linking); purified VLPs mixed with 2x Laemmli sample buffer with or without 20 mM DTT, 15 min at room temperature; 8-16% gel; blot probed with anti-HPV16 L1 mAb CAMVIR-1.

For assay [2], the target named is chimeric HPV16 L1:P18I10 capsid protein (BEVS/IC-derived, ultracentrifugation-purified L1:P18I10 VLP) (human papillomavirus type 16 | HIV-1) (UniProt P03101). The description is as above.

In assay [1], “chimeric HPV16 L1:P18I10 capsid protein (293F-derived, chromatography-purified L1:P18I10 VLP) (from UniProt P03101 1-129; P03101 137-505)” came in with a percent disulfide-bonded into oligomers (without DTT) above 99% and a percent monomeric (with DTT) of 80%.
In assay [2], “chimeric HPV16 L1:P18I10 capsid protein (BEVS/IC-derived, ultracentrifugation-purified L1:P18I10 VLP) (from UniProt P03101 1-129; P03101 137-505)” returned a percent disulfide-bonded into oligomers (without DTT) above 99% and a percent monomeric (with DTT) of 50%.
